{"source": "paper PMC4254994", "about": "(PLoS ONE, 2014)", "proteins": {"B1": {"name": "Bacterial proteasome activator Bpa (Rv3780) of Mycobacterium tuberculosis (natural protein)", "chain": "MVIGLSTGSDDDDVEVIGGVDPRLIAVQENDSDESSLTDLVEQPAKVMRIGTMIKQLLEEVRAAPLDEASRNRLRDIHATSIRELEDGLAPELREELDRLTLPFNEDAVPSDAELRIAQAQLVGWLEGLFHGIQTALFAQQMAARAQLQQMRQGALPPGVGKSGQHGHGTGQYL"}}, "target": "the molecule itself", "experiment": "SEC"}
{"protein": "B1", "values": [{"measurement": "stoichiometry N", "result": "~6"}]}
